Data on 29 substances can be found in patent publication US20050118674A1, “Engineering of Controlled Deamidation Rates in Peptides, Proteins, and Similar Structures” (priority 2003, published 2005).

Where no end group is shown, it is not given here.

One data set can be described thus: First-order nonenzymatic deamidation of pentapeptides in Tris buffer. It counts as physicochemical. The settings on record: pH 7.4, 37.0° C., 0.15 M Tris HCl; Asn pentapeptides. Put shortly: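 Pentapeptides containing Asn or Gln in varied flanking sequences incubated at 37° C., pH 7.4, 0.15 M Tris buffer; first-order deamidation rates measured. Some Asn values estimated from remaining data; many Gln values derived from surface fitting rather than measured.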
Take “GlyIleAsnTrpGly (GINWG; printed: GlyIleAsnTrpGly)”: the “First-Order Deamidation Halftimes of GlyXxxAsnYyyGly” value is reported as 86.7 days.

Take “GlyTyrAsnLeuGly (GYNLG; printed: GlyTyrAsnLeuGly)”: the “First-Order Deamidation Halftimes of GlyXxxAsnYyyGly” value was 118 days.

In the case of “GlyAmCysAsnPheGly (CNFG; not fully specified (N-terminus); printed as GlyAmCysAsnPheGly)”, the “First-Order Deamidation Halftimes of GlyXxxAsnYyyGly” value is recorded as 63.3 days.

On to “GlyProAsnGlyGly (GPNGG; printed: GlyProAsnGlyGly)”, for which the “First-Order Deamidation Halftimes of GlyXxxAsnYyyGly” value worked out at 1.18 days.

For “GlySerAsnAspGly (GSNDG; printed: GlySerAsnAspGly)”, the “First-Order Deamidation Halftimes of GlyXxxAsnYyyGly” value came to 30.3 days.

Take “GlyValAsnValGly (GVNVG; printed: GlyValAsnValGly)”: the “First-Order Deamidation Halftimes of GlyXxxAsnYyyGly” value is reported as 291 days.

As for “GlyAspAsnArgGly (GDNRG; printed: GlyAspAsnArgGly)”, the “First-Order Deamidation Halftimes of GlyXxxAsnYyyGly” value is given as 87.2 days.

In the case of “GlyTrpAsnArgGly (GWNRG; printed: GlyTrpAsnArgGly)”, the “First-Order Deamidation Halftimes of GlyXxxAsnYyyGly” value is recorded as 73.9 days.

“GlySerAsnGlyGly (GSNGG; printed: GlySerAsnGlyGly)”: the “First-Order Deamidation Halftimes of GlyXxxAsnYyyGly” value is recorded as 0.96 days.

“GlyArgAsnSerGly (GRNSG; printed: GlyArgAsnSerGly)”: the “First-Order Deamidation Halftimes of GlyXxxAsnYyyGly” value was found to be 14.3 days.

Take “GlyGlyAsnLysGly (GGNKG; printed: GlyGlyAsnLysGly)”: the “First-Order Deamidation Halftimes of GlyXxxAsnYyyGly” value is reported as 48.2 days.

Take “GlyHisAsnGlyGly (GHNGG; printed: GlyHisAsnGlyGly)”: the “First-Order Deamidation Halftimes of GlyXxxAsnYyyGly” value amounted to 1.14 days.

For the substance “GlyTyrAsnTyrGly (GYNYG; printed: GlyTyrAsnTyrGly)”, the “First-Order Deamidation Halftimes of GlyXxxAsnYyyGly” value turned out to be 70.6 days.

Consider “GlyValAsnLysGly (GVNKG; printed: GlyValAsnLysGly)”, for which the “First-Order Deamidation Halftimes of GlyXxxAsnYyyGly” value amounted to 63.8 days.

As to “GlyAlaAsnTyrGly (GANYG; printed: GlyAlaAsnTyrGly)”, the “First-Order Deamidation Halftimes of GlyXxxAsnYyyGly” value is listed as 73.9 days.

Staying with this data set, now noted: pH 7.4, 37.0 ° C., 0.15 M Tris HCl; Gln pentapeptides; 52 values measured, rest derived from surface fitting.
On to “GlyPheGlnProGly (GFQPG; printed: GlyPheGlnProGly)”, for which the “First-Order Deamidation Halftimes of GlyXxxGlnYyyGly” value is recorded as 10000 days.

On to “GlyGluGlnPheGly (GEQFG; printed: GlyGluGlnPheGly)”, for which the “First-Order Deamidation Halftimes of GlyXxxGlnYyyGly” value came out at 8400 days.

Turning to “GlyAspGlnMetGly (GDQMG; printed: GlyAspGlnMetGly)”, the “First-Order Deamidation Halftimes of GlyXxxGlnYyyGly” value is 5200 days.

Take “GlyAlaGlnAspGly (GAQDG; printed: GlyAlaGlnAspGly)”: the “First-Order Deamidation Halftimes of GlyXxxGlnYyyGly” value was 7400 days.

Regarding “GlyArgGlnTyrGly (GRQYG; printed: GlyArgGlnTyrGly)”, the “First-Order Deamidation Halftimes of GlyXxxGlnYyyGly” value is 9200 days.

For “GlyLeuGlnSerGly (GLQSG; printed: GlyLeuGlnSerGly)”, the “First-Order Deamidation Halftimes of GlyXxxGlnYyyGly” value was determined as 5800 days.

For the substance “GlyTyrGlnProGly (GYQPG; printed: GlyTyrGlnProGly)”, the “First-Order Deamidation Halftimes of GlyXxxGlnYyyGly” value is on record as 11000 days.

Turning to “GlyTyrGlnAspGly (GYQDG; printed: GlyTyrGlnAspGly)”, the “First-Order Deamidation Halftimes of GlyXxxGlnYyyGly” value came to 8600 days.

As for “GlyValGlnMetGly (GVQMG; printed: GlyValGlnMetGly)”, the “First-Order Deamidation Halftimes of GlyXxxGlnYyyGly” value was 4200 days.

For “GlyCysGlnMetGly (GCQMG; printed: GlyCysGlnMetGly)”, the “First-Order Deamidation Halftimes of GlyXxxGlnYyyGly” value turned out to be 3200 days.

As for “GlyCysGlnTyrGly (GCQYG; printed: GlyCysGlnTyrGly)”, the “First-Order Deamidation Halftimes of GlyXxxGlnYyyGly” value is reported as 7900 days.

Turning to “GlyValGlnProGly (GVQPG; printed: GlyValGlnProGly)”, the “First-Order Deamidation Halftimes of GlyXxxGlnYyyGly” value is listed as 8500 days.

“GlyTyrGlnLeuGly (GYQLG; printed: GlyTyrGlnLeuGly)”: the “First-Order Deamidation Halftimes of GlyXxxGlnYyyGly” value amounted to 7800 days.

“GlyAspGlnArgGly (GDQRG; printed: GlyAspGlnArgGly)”: the “First-Order Deamidation Halftimes of GlyXxxGlnYyyGly” value is on record as 5200 days.
